Patent publication US20250361268A1, “NOVEL ANTI-INFLAMMATORY PEPTIDE AND USE THEREOF” (NOVACELL TECHNOLOGY INC., priority 2022, published 2025)

T1: formyl peptide receptor 2 (FPR2) (UniProt P25090 1-351, limits assumed)
T1 sequence (looked up): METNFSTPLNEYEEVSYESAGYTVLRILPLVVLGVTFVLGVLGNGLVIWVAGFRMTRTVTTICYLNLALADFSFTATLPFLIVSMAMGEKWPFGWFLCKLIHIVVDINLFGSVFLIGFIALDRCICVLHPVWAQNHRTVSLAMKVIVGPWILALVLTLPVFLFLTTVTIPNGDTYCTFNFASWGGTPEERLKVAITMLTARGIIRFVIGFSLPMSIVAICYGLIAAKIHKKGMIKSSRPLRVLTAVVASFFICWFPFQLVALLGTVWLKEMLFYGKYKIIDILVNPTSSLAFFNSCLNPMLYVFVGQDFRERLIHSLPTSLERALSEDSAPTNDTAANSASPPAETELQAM

B1: peptide of SEQ ID NO 117 (peptide)
peptide: RWRYWPM
HELM: PEPTIDE1{[ac].R.W.R.Y.W.P.[dM].[am]}$$$$V2.0
SMILES: CSCC[C@@H](NC(=O)[C@@H]1CCCN1C(=O)[C@H](Cc1c[nH]c2ccccc12)NC(=O)[C@H](Cc1ccc(O)cc1)NC(=O)[C@H](CCCNC(=N)N)NC(=O)[C@H](Cc1c[nH]c2ccccc12)NC(=O)[C@H](CCCNC(=N)N)NC(C)=O)C(N)=O
B2: peptide of SEQ ID NO 109 (peptide)
peptide: RMRYWPM
HELM: PEPTIDE1{[CCCCCCCC(=O)[*:2]].R.M.R.Y.W.P.[dM].[am]}$$$$V2.0
SMILES: CCCCCCCC(=O)N[C@@H](CCCNC(=N)N)C(=O)N[C@@H](CCSC)C(=O)N[C@@H](CCCNC(=N)N)C(=O)N[C@@H](Cc1ccc(O)cc1)C(=O)N[C@@H](Cc1c[nH]c2ccccc12)C(=O)N1CCC[C@H]1C(=O)N[C@H](CCSC)C(N)=O
B3: peptide of SEQ ID NO 112 (peptide)
peptide: MRYWPM
HELM: PEPTIDE1{[CCCC(=O)[*:2]].M.R.Y.W.P.[dM].[am]}$$$$V2.0
SMILES: CCCC(=O)N[C@@H](CCSC)C(=O)N[C@@H](CCCNC(=N)N)C(=O)N[C@@H](Cc1ccc(O)cc1)C(=O)N[C@@H](Cc1c[nH]c2ccccc12)C(=O)N1CCC[C@H]1C(=O)N[C@H](CCSC)C(N)=O
B4: peptide of SEQ ID NO 113 (peptide)
peptide: MKYWPM
HELM: PEPTIDE1{M.K.Y.W.P.[dM].[am]}$$$$V2.0; N-terminus assumed
SMILES: CSCC[C@H](N)C(=O)N[C@@H](CCCCN)C(=O)N[C@@H](Cc1ccc(O)cc1)C(=O)N[C@@H](Cc1c[nH]c2ccccc12)C(=O)N1CCC[C@H]1C(=O)N[C@H](CCSC)C(N)=O
B5: peptide of SEQ ID NO 104 (peptide)
peptide: RMRYWVM
HELM: PEPTIDE1{[ac].R.M.R.Y.W.V.[dM].[am]}$$$$V2.0
SMILES: CSCC[C@H](NC(=O)[C@H](CCCNC(=N)N)NC(C)=O)C(=O)N[C@@H](CCCNC(=N)N)C(=O)N[C@@H](Cc1ccc(O)cc1)C(=O)N[C@@H](Cc1c[nH]c2ccccc12)C(=O)N[C@H](C(=O)N[C@H](CCSC)C(N)=O)C(C)C
B6: peptide of SEQ ID NO 118 (peptide)
peptide: WRYWPM
HELM: PEPTIDE1{W.R.Y.W.P.[dM].[am]}$$$$V2.0; N-terminus assumed
SMILES: CSCC[C@@H](NC(=O)[C@@H]1CCCN1C(=O)[C@H](Cc1c[nH]c2ccccc12)NC(=O)[C@H](Cc1ccc(O)cc1)NC(=O)[C@H](CCCNC(=N)N)NC(=O)[C@@H](N)Cc1c[nH]c2ccccc12)C(N)=O
B7: peptide of SEQ ID NO 102 (peptide)
peptide: WRYWVM
HELM: PEPTIDE1{[ac].W.R.Y.W.V.[dM].[am]}$$$$V2.0
SMILES: CSCC[C@@H](NC(=O)[C@@H](NC(=O)[C@H](Cc1c[nH]c2ccccc12)NC(=O)[C@H](Cc1ccc(O)cc1)NC(=O)[C@H](CCCNC(=N)N)NC(=O)[C@H](Cc1c[nH]c2ccccc12)NC(C)=O)C(C)C)C(N)=O
B8: peptide of SEQ ID NO 108 (peptide)
peptide: RMRYWPM
HELM: PEPTIDE1{[CCCC(=O)[*:2]].R.M.R.Y.W.P.[dM].[am]}$$$$V2.0
SMILES: CCCC(=O)N[C@@H](CCCNC(=N)N)C(=O)N[C@@H](CCSC)C(=O)N[C@@H](CCCNC(=N)N)C(=O)N[C@@H](Cc1ccc(O)cc1)C(=O)N[C@@H](Cc1c[nH]c2ccccc12)C(=O)N1CCC[C@H]1C(=O)N[C@H](CCSC)C(N)=O
B9: peptide of SEQ ID NO 107 (peptide)
peptide: RMRYWPM
HELM: PEPTIDE1{[ac].R.M.R.Y.W.P.[dM].[am]}$$$$V2.0
SMILES: CSCC[C@H](NC(=O)[C@H](CCCNC(=N)N)NC(C)=O)C(=O)N[C@@H](CCCNC(=N)N)C(=O)N[C@@H](Cc1ccc(O)cc1)C(=O)N[C@@H](Cc1c[nH]c2ccccc12)C(=O)N1CCC[C@H]1C(=O)N[C@H](CCSC)C(N)=O
B10: peptide of SEQ ID NO 111 (peptide)
peptide: MRYWPM
HELM: PEPTIDE1{[ac].M.R.Y.W.P.[dM].[am]}$$$$V2.0
SMILES: CSCC[C@H](NC(C)=O)C(=O)N[C@@H](CCCNC(=N)N)C(=O)N[C@@H](Cc1ccc(O)cc1)C(=O)N[C@@H](Cc1c[nH]c2ccccc12)C(=O)N1CCC[C@H]1C(=O)N[C@H](CCSC)C(N)=O
B11: peptide of SEQ ID NO 98 (peptide)
peptide: RMRYYVM
HELM: PEPTIDE1{[ac].R.M.R.Y.Y.V.[dM].[am]}$$$$V2.0
SMILES: CSCC[C@H](NC(=O)[C@H](CCCNC(=N)N)NC(C)=O)C(=O)N[C@@H](CCCNC(=N)N)C(=O)N[C@@H](Cc1ccc(O)cc1)C(=O)N[C@@H](Cc1ccc(O)cc1)C(=O)N[C@H](C(=O)N[C@H](CCSC)C(N)=O)C(C)C
B12: peptide of SEQ ID NO 114 (peptide)
peptide: MKYWPM
HELM: PEPTIDE1{[ac].M.K.Y.W.P.[dM].[am]}$$$$V2.0
SMILES: CSCC[C@H](NC(C)=O)C(=O)N[C@@H](CCCCN)C(=O)N[C@@H](Cc1ccc(O)cc1)C(=O)N[C@@H](Cc1c[nH]c2ccccc12)C(=O)N1CCC[C@H]1C(=O)N[C@H](CCSC)C(N)=O
B13: peptide of SEQ ID NO 106 (peptide)
peptide: RMRYWPM
HELM: PEPTIDE1{R.M.R.Y.W.P.[dM].[am]}$$$$V2.0; N-terminus assumed
SMILES: CSCC[C@H](NC(=O)[C@@H](N)CCCNC(=N)N)C(=O)N[C@@H](CCCNC(=N)N)C(=O)N[C@@H](Cc1ccc(O)cc1)C(=O)N[C@@H](Cc1c[nH]c2ccccc12)C(=O)N1CCC[C@H]1C(=O)N[C@H](CCSC)C(N)=O
B14: peptide of SEQ ID NO 101 (peptide)
peptide: RWRYWVM
HELM: PEPTIDE1{R.W.R.Y.W.V.[dM].[am]}$$$$V2.0; N-terminus assumed
SMILES: CSCC[C@@H](NC(=O)[C@@H](NC(=O)[C@H](Cc1c[nH]c2ccccc12)NC(=O)[C@H](Cc1ccc(O)cc1)NC(=O)[C@H](CCCNC(=N)N)NC(=O)[C@H](Cc1c[nH]c2ccccc12)NC(=O)[C@@H](N)CCCNC(=N)N)C(C)C)C(N)=O
B15: peptide of SEQ ID NO 105 (peptide)
peptide: MRYWVM
HELM: PEPTIDE1{[ac].M.R.Y.W.V.[dM].[am]}$$$$V2.0
SMILES: CSCC[C@H](NC(C)=O)C(=O)N[C@@H](CCCNC(=N)N)C(=O)N[C@@H](Cc1ccc(O)cc1)C(=O)N[C@@H](Cc1c[nH]c2ccccc12)C(=O)N[C@H](C(=O)N[C@H](CCSC)C(N)=O)C(C)C
B16: peptide of SEQ ID NO 110 (peptide)
peptide: MRYWPM
HELM: PEPTIDE1{M.R.Y.W.P.[dM].[am]}$$$$V2.0; N-terminus assumed
SMILES: CSCC[C@H](N)C(=O)N[C@@H](CCCNC(=N)N)C(=O)N[C@@H](Cc1ccc(O)cc1)C(=O)N[C@@H](Cc1c[nH]c2ccccc12)C(=O)N1CCC[C@H]1C(=O)N[C@H](CCSC)C(N)=O
B17: peptide of SEQ ID NO 100 (peptide)
peptide: MRYYVM
HELM: PEPTIDE1{M.R.Y.Y.V.[dM].[am]}$$$$V2.0; N-terminus assumed
SMILES: CSCC[C@H](N)C(=O)N[C@@H](CCCNC(=N)N)C(=O)N[C@@H](Cc1ccc(O)cc1)C(=O)N[C@@H](Cc1ccc(O)cc1)C(=O)N[C@H](C(=O)N[C@H](CCSC)C(N)=O)C(C)C
B18: peptide of SEQ ID NO 120 (peptide)
peptide: MRYYPM
HELM: PEPTIDE1{M.R.Y.Y.P.[dM].[am]}$$$$V2.0; N-terminus assumed
SMILES: CSCC[C@H](N)C(=O)N[C@@H](CCCNC(=N)N)C(=O)N[C@@H](Cc1ccc(O)cc1)C(=O)N[C@@H](Cc1ccc(O)cc1)C(=O)N1CCC[C@H]1C(=O)N[C@H](CCSC)C(N)=O
B19: peptide of SEQ ID NO 97 (peptide)
peptide: RMRYYVM
HELM: PEPTIDE1{R.M.R.Y.Y.V.[dM].[am]}$$$$V2.0; N-terminus assumed
SMILES: CSCC[C@H](NC(=O)[C@@H](N)CCCNC(=N)N)C(=O)N[C@@H](CCCNC(=N)N)C(=O)N[C@@H](Cc1ccc(O)cc1)C(=O)N[C@@H](Cc1ccc(O)cc1)C(=O)N[C@H](C(=O)N[C@H](CCSC)C(N)=O)C(C)C
B20: peptide of SEQ ID NO 115 (peptide)
peptide: MKYWPM
HELM: PEPTIDE1{[CCCC(=O)[*:2]].M.K.Y.W.P.[dM].[am]}$$$$V2.0
SMILES: CCCC(=O)N[C@@H](CCSC)C(=O)N[C@@H](CCCCN)C(=O)N[C@@H](Cc1ccc(O)cc1)C(=O)N[C@@H](Cc1c[nH]c2ccccc12)C(=O)N1CCC[C@H]1C(=O)N[C@H](CCSC)C(N)=O
B21: peptide of SEQ ID NO 119 (peptide)
peptide: RMRYYPM
HELM: PEPTIDE1{[ac].R.M.R.Y.Y.P.[dM].[am]}$$$$V2.0
SMILES: CSCC[C@H](NC(=O)[C@H](CCCNC(=N)N)NC(C)=O)C(=O)N[C@@H](CCCNC(=N)N)C(=O)N[C@@H](Cc1ccc(O)cc1)C(=O)N[C@@H](Cc1ccc(O)cc1)C(=O)N1CCC[C@H]1C(=O)N[C@H](CCSC)C(N)=O

Molecular target: T1, formyl peptide receptor 2 (FPR2)
Test: cell-based or functional assay

Row | EC50 for [Ca2+] | Binder
1 | < 10 nM | B1
2 | < 10 nM | B2
3 | < 10 nM | B3
4 | < 10 nM | B4
5 | < 10 nM | B5
6 | < 10 nM | B6
7 | < 10 nM | B7
8 | < 10 nM | B8
9 | < 10 nM | B9
10 | < 10 nM | B10
11 | < 10 nM | B11
12 | < 10 nM | B12
13 | < 10 nM | B13
14 | < 10 nM | B14
15 | < 10 nM | B15
16 | < 10 nM | B16
17 | < 10 nM | B17
18 | < 10 nM | B18
19 | < 10 nM | B19
20 | < 10 nM | B20
21 | < 10 nM | B21
